The target of this experiment is T1, Peptide 13 (TSESGELHGLTTE) (also: biotinylated).
T1 construct: Lies on the D-strand of TTR
T1 peptide: TSESGELHGLTTE
The experiment can be described thus: indirect ELISA: biotinylated peptide 13 (TSESGELHGLTTE) captured on NeutrAvidin, antibody titrated, HRP secondary antibody, TMB, % max. binding, the axis is Log10 [Antibody] nM. (An ELISA detects its analyte on a solid surface through an enzyme-linked reagent.)

Ends that are not written are not given here.

B1: MFD108 (antibody, V domains shown)
VH: EVQLVESGGDLVKPGGSLKLSCAASGFTFSNYGMSWVRQTPDKRLEWVATITSGGSYTYYPDSVKGRFTISRDNAKNTLYLQMSSLKSEDTAMYYCARDGTAWFAYWGQGTLVTVSA
VL: DIQMTQTTSSLSASLGDRVTISCRASQDISNYLNWYQQKPDGTVKLLIYYTSRLHSGVPSRFSGSGSGTDYSLTISNLEEEDIATYFCQQGNTLRTFGGGTKLEIK
Usually EC50 stands for the concentration at which the effect is half-maximal. Consider B1, for which the EC50 stood at 0.247 nM.

Source of the values: patent US20160039916A1 (MISFOLDING DIAGNOSTICS, published 2016).
